Data on 8 molecules can be found in patent US20220088115A1, “PHARMACEUTICAL COMPOSITION, COMPRISING INHIBITORY PEPTIDE AGAINST FAS SIGNALING, FOR PREVENTION OR TREATMENT OF OBESITY, FATTY LIVER, OR STEATOHEPATITIS” (SIGNET BIOTECH INC., priority 2018, published 2022).

A short description of data set [1]: Stability of peptides in sera. Type of data set: in vitro ADME. The conditions noted are these: compared among cyclic FBP-8, linear FBP-8 and FBP-7.
The test system of another data set is obese person. As to conditions: in vivo; cited from earlier work.
A further data set has as its target T1, Fas (Homo sapiens, UniProt P25445).
T1 construct: A Jurkat cell line, in which Fas is always expressed; host or cells: Jurkat
T1 sequence (P25445 26-335): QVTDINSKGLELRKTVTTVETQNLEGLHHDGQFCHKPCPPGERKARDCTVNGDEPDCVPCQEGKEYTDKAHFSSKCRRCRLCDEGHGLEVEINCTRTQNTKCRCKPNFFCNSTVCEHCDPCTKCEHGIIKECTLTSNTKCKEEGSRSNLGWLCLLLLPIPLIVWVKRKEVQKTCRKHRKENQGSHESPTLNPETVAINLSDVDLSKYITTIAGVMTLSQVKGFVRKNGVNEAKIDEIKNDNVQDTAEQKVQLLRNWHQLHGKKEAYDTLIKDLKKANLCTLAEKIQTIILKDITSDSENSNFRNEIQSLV
Briefly: Binding of Alexa647-labeled peptides to Fas-expressing Jurkat cell line. The conditions noted are these: Jurkat cell line always expressing Fas; Alexa647-labeled peptide. As for the experimental part:
A Jurkat cell line which is a human blood cancer cell line and a 3T3L1 cell line which is a murine adipocyte were purchased from ATCC (USA), and the Jurkat cell line was cultured in an RPMI culture medium containing 10% fetal bovine serum (FBS), 1% penicillin, 1% streptomycin, and 25 mM glucose.
A Jurkat cell line, in which Fas is always expressed, was treated with an FITC-labeled Fas antibody and treated with Alexa647-labeled FBP-8, FBP-A, FBP-7 or control peptide (YCNSTVCY; CtrFBP).

A further data set deals with 3T3L1 cell line. The data set is described as follows: Apoptosis level in 3T3L1 cell line treated with FasL and peptide (annexin V flow cytometry). Type of data set: cell-based, murine. As to conditions: differentiated 3T3L1 treated with Fas ligand and peptide. As for the experimental part: The 3T3L1 cell line was cultured in a DMEM culture medium containing 10% FBS, 1% penicillin, 1% streptomycin, and 25 mM glucose. The 3T3L1 cell line was aliquoted into the above DMEM culture solution at a concentration of 2×10^5 cells/ml to induce adipocyte maturation for 3 days, and then replaced with a culture solution containing insulin to induce adipocyte maturation again for 3 days. Thereafter, the 3T3L1 cell line was further cultured in the above DMEM culture solution for 2 days to achieve complete maturation of adipocytes.
The 3T3L1 cell line was treated with a Fas ligand (FasL) at a concentration of 500 ng/ml to induce apoptosis, and FBP signal blocking peptides (FBP-8. FBP-A and FBP-7) and CtrFBP bound to Alexa647 were treated, respectively. After 4 hours of peptide treatment, cells were washed with DPBS and treated with FITC-bound annexin V (BD Pharmingen) to analyze the apoptosis inhibitory effect by a flow cytometer.
(Flow cytometry measures light scatter and fluorescence of single cells or particles in a stream.)

Another data set deals with obesity model mice. The data set is described as follows: TUNEL staining of dead cells, obesity model mice, intravenous FBP-8. The format is in vivo, C57BL/6 mice. The conditions noted are these: intravenous twice a week for 5 weeks. The method, then: All animal experiments performed for the present invention were approved by the Institutional Animal Care and Use Committee of Hanyang University. […] Thereafter, depending on the experimental group, 60 μg/one time of FBP8 were administered by intravenous injection twice a week for a total of 5 weeks (FIG. 13), or FBP7 was administered by subcutaneous injection twice a day.
Furthermore, a terminal deoxynucleotidyl transferase dUTP nick end labeling (TUNEL) analysis for each tissue was performed with an in situ cell death detection kit (Millipore, USA). Thereafter, the fluorescence signals were analyzed under a TCS-SP5 confocal microscope by staining the nuclei with Hoechst 33342, and the fluorescence signals of each cell were analyzed with the Image J program.
Obesity model mice were produced by feeding normal mice a high fat diet for 8 weeks, and FBP-8 was administered by intravenous injection twice a week for a total of 5 weeks (FIG. 13). After five weeks, the obesity model mice were sacrificed to isolate white adipose tissues and liver tissues and analyze the proportion of dead cells by TUNEL staining.

For data set [2], the target named is T2, Fas on Jurkat cell line (human blood cancer cell line in which Fas is always expressed) (human, UniProt P25445 26-335).
T2 sequence (looked up): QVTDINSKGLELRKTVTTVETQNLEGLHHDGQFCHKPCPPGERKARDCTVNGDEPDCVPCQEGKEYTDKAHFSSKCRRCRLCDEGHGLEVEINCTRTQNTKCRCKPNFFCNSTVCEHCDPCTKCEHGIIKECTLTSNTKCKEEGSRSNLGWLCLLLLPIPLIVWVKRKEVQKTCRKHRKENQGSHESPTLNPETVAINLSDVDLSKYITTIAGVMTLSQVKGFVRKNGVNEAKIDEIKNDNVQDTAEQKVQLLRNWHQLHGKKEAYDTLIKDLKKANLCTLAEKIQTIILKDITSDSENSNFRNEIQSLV
The data set is described as follows: cell-based or functional assay.

Where a SMILES comes first, the peptide text is derived from it. Where no end group is shown, it is not given here.

For `N[C@@H](Cc1ccc(O)cc1)C(=O)N[C@@H](CS)C(=O)N[C@@H](CC(=O)O)C(=O)N[C@@H](CCC(=O)O)C(=O)N[C@@H](Cc1c[nH]cn1)C(=O)N[C@@H](Cc1ccccc1)C(=O)N[C@@H](Cc1ccc(O)cc1)C(=O)O` [FBP-7, YCDEHFY] (H-YCDEHFY-OH; N-terminus and C-terminus assumed), in data set [1], the serum stability entry is listed as “the best”.

Regarding `CCCCCCCCCCCCCCCC(=O)N[C@@H](CCC(=O)NCCCC[C@H](NC(=O)[C@H](C)NC(=O)[C@H](C)NC(=O)[C@H](CCC(N)=O)NC(=O)CNC(=O)[C@H](CCC(=O)O)NC(=O)[C@H](CC(C)C)NC(=O)[C@H](Cc1ccc(O)cc1)NC(=O)[C@H](CO)NC(=O)[C@H](CO)NC(=O)[C@@H](NC(=O)[C@H](CC(=O)O)NC(=O)[C@H](CO)NC(=O)[C@@H](NC(=O)[C@H](Cc1ccccc1)NC(=O)[C@@H](NC(=O)CNC(=O)[C@H](CCC(=O)O)NC(=O)[C@H](C)NC(=O)[C@@H](N)Cc1cnc[nH]1)[C@@H](C)O)[C@@H](C)O)C(C)C)C(=O)N[C@@H](CCC(=O)O)C(=O)N[C@@H](Cc1ccccc1)C(=O)N[C@H](C(=O)N[C@@H](C)C(=O)N[C@@H](Cc1c[nH]c2ccccc12)C(=O)N[C@@H](CC(C)C)C(=O)N[C@H](C(=O)N[C@@H](CCCNC(=N)N)C(=O)NCC(=O)N[C@@H](CCCNC(=N)N)C(=O)NCC(=O)O)C(C)C)[C@@H](C)CC)C(=O)O` [liraglutide], the side effects entry in the data set with obese person was “nausea, vomiting, diarrhea, and constipation”.

With “YCDEHFAY (Fas binding peptide-A (FBP-A))”, in the data set with Fas, the “binding to Jurkat cells (Alexa647 signal)” value is listed as “bound to Jurkat cells at similar levels”. “YCNSTVCY (control peptide) [CtrFBP, control peptide used as negative control, reference compound]”: in the data set with Fas, the “binding to Jurkat cells (Alexa647 signal)” value is reported as “hardly bound to Jurkat cells”. The apoptosis level in the data set with 3T3L1 cell line came to 23±5.12%. Further, in the data set on obesity model mice, the “proportion of dead cells in liver tissue (TUNEL)” value is 17+7.98% and the “proportion of dead cells in white adipose tissue (TUNEL)” value is listed as 51±2.98%.

For the molecule YCDEHFY (also: Alexa647 label, attachment site not given here) [Fas Blocking Peptide 7 (FBP7)], in data set [2], the “apoptosis level of Jurkat cells treated with Fas ligand (FasL) and peptide” value (shortened to “apoptosis level of Jurkat cells treated”) stood at 14%.

B1: Control Peptide (CTRP) (peptide)
peptide: YCNSTVCY
modifications: cysteine pairing not given here; also: Alexa647 label, attachment site not given here
Consider B1, for which the “apoptosis level of Jurkat cells treated” value in data set [2] stood at 31%.

B2: Fas Blocking Peptide (FBP or FBP-8) (peptide)
peptide: YCDEHFCY
modifications: cysteine pairing not given here; also: Alexa647 or Alexa 488 label, attachment site not given here
In the case of B2, in data set [2], the “apoptosis level of Jurkat cells treated” value amounted to 17%. On to YCDEHFAY (also: Alexa647 label, attachment site not given here) [Fas Blocking Peptide A (FBPA)], for which the “apoptosis level of Jurkat cells treated” value in data set [2] came to 15%.
